The values that follow come from a protein production outcome set (Wang et al. 2014).

This data set can be described thus: label from the status in PepcDB records.

For the sequence “MHHYRVSGWTLATEIPLPHLFPCSAPAGEAAADITLRQGPVPPPPVPLRLDRDGIQVGADGHTVIDIPNCVRIGLTGGRDIMVDPAPGASWPEIQTWLLGPGLGVICHQRGVLPLHACAIRTGKGGLAIVGNSGAGKSTTATALVQRGHRLLGDDVLVVDPDTGLAQPCFPMVKLWDSSRSALDIGQEGQQSVGGKIGKWHMPMLAAFDPVPRPLSAIVHLRADPAARRPVLTRWPRPHAAAVLDAMTYRVYLADALHGRRHVLSAATRLAAHVPVWELVRTADFADLAEMLDMLEGLAGALEHHHHHH”, the protein production result is given as “failed”.
In the case of “MHIHILGICGTFMGSLALLARALGHTVTGSDANIYPPMSTQLEQAGVTIEEGYLIAHLQPAPDLVVVGNAMKRGMDVIEYMLDTGLRYTSGPQFLSEQVLQSRHVIAVAGTHGKTTTTTMLAWILHYAGIDAGFLIGGVPLVNTTDTNLQQVFAHSSYLGTEKDDSDNSVNTGYFVIEADEYDSAFFDKRSKFVHYRPRTAILNNLEFDHADIFADLDAIQTQFHHMVRMIPSTGKIIMPAATISLEDTLAKGVWTPIWRTSVIDSTISSVRREDSPLENSQAENSSDWQAELISADGSQFTVSFNDNKEATALVNWSMSGLHNVNNALVAIAAAYNIGVSVKTACAALSAFAGIKRRMELIGDVNDILVFDDFAHHPTAITTTLDGAKKKLADRRLWAIIEPRSNTMKMGIHQDSLAQSATLADHTLWYEPTGLEWGLKEVIDNATIANPSIGSQQVLSSVDDIIKHICTHAKAGDAIVIMSNGGFEGIHQRLLTALGNIVAIL”, the protein production entry is “not failed”.
Turning to “MHLGSTFYDETELRSLPFRHLGANVKIKRTAGLFFVENISIMDDARIDDFTIIVASREHVEIGCNVHIASQCYISGSDGFVMEDFSGLAPGVKIYTSSDDYTGEKMTNPTLPRHLIGGPAGKVVLRKHVIIGSNSVVLPKVTIEEGSSVGSLSLVNKSLPAWGVYAGIPVRRLRDRSQNILILEKELGASRA”, the protein production entry is “failed”.
On to “MHLGVIGATGTIGSRVVTEALARGHHVTAFTRDSTQIDEDRGNVVWKSLDVLDAASVAAGISGLDVLISGFQPGNAAKDIADTVARSIADPTVYATAARSLLKALESHPRTRLIVIGGAGSLEIEPGVVRADSDELLHSSLDALGLPRQYAAAVRGHRDALNVLRTSNRLWTYFSPAEDIAPGERTGRFRTGGDQPVLDAEGRSRISVEDAAVALVDEAELPRFVQRRFTIGY”, for which the protein production entry is given as “failed”.
“MHLLVVEDDDIVRMLMVEVLDDLGYKVIEAEDATAALRVLEDPSQALALMMTDVGLPDMRGEELAGKARELRPLLPVLFASGYADSFNVPEGMHLIGKPFSIDQLRDTVVGILGTP”: the protein production result was “failed”.
With “MHLQPQKKKKHLQTFLHPQQTQVLQTICLQPRQKGRVDSQLIVLQAQQQQALQVPVEAVNCSENMRRLSISEDFSKALQILYNLGKISDNRESFDNTXFYEENLGKALRVNDNTVKPSAPVSTQESLRTVELTEGFRHQCIFDFCRRRDILRYFFDPIKANLSKGHGSNFDKSDSVACTLHPYTPYPHLQQLWVYYMLTYTQYLPLRLVGGQNRCEGRLEVRHEGEWGTVCDDRWNIKNARVVCRLLGCGPALGAPGRSHFGPGTGPILMNEVRCSGREDSLESCAHAGWTRHNCHHREDASVICAGPADSLVPKDNAQLSCLPHLFQAVIDRGYLRRLGYSSWDIHLNDKMCRPQVTGRYLIFNIPYGHCGTVMQKHQGSLSYSNSIRGRTQGHPGRVIVRHKVPQVKFTCKVDGQSAVEIVHGSDTKDEASYDVSISFLQSPVSQNTGGRAPLASQREEVFLQATLHSHNPNLRLVVDTCVASPDASDFTTVKYDLIQEGCIKDNSYSNLHAPEKNVAQFKFNAFSFLKSYDVVYVQCKVAVCRLGDHSSRCSQGCLNRGRRGAGSAEVREEQTEYFQTVGPLKIHREANQSKVLV”, the protein production entry was “failed”.
For “MHLRLSTLAGFKTGPRFQSSMSEAESESRAGREEVWIEKYRPQTLDDVMGHENIVGRLKSYVSRNDLSHMLFSGPAGTGKTTCATAIARELYGDDWREHFLELNASDERGIDVVRDRIKNFARTSFGGVEYRIIFLDEADALTSDAQSALRRTMEQFSNNVRFILSCNYSSQIIDPIQSRCAVFRFSPLADDAVAEEIRTIAAEEDIELTEDGLDALVYAADGDMRKAINGLQAASVSGDTVDESAVYAITSTARPEEIRTMVQSALDGDFTASRATLDRLLTEEGIAGGDIIDQLHRSIWEFDIDDDAAVRVLERIGETDYRITRGANERVQLEAMLASLAQGE”, the protein production entry is recorded as “failed”.
In the case of “MHLSRCRKCGRVMKGERIDPYRVKLTCSCGFSDFRTMTEKVKTVNPFFQKGGFSPLLESERGKMVLTMQRANREHLEIISLEEISMLVSSDFDLPEVLQHVTAKVATQLKVSVCNIYLREGDEVVLAATHGFDPAFIGKIRIKIGDGITGSVARDGQYISLSRASQDPRYRYFPELQEEKYNSMLSFPIGDKKEVYGVINLNTTSIRSFHEDEIYFVSIIANLILTAIKLRQQVASSRKAAEASA”, the protein production entry is on record as “failed”.
In the case of “MHMLFYKSYVREFIGEFLGTFVLMFLGEGATANFHTTGLSGDWYKLCLGWGLAVFFGILVSAKLSGAHLNLAVSIGLSSINKFDLKKIPVYFFAQLLGAFVGTSTVYGLYHGFISNSKIPQFAWETSRNPSISLTGAFFNELILTGILLLVILVVVDENICGKFHILKLSSVVGLIILCIGITFGGNTGFALNPSRDLGSRFLSLIAYGKDTFTKDNFYFWVPLVAPCVGSVVFCQFYDKVICPLVDLANNEKDGVDL”, the protein production entry is “not failed”.
The result for “MHNDQEISDANRDWWDSDAQRYHNDHAAYLNGFHWCPEMLPEREAHLLGDISGLNVLEIGCGSAPCSRWLFDNYDAFVTGFDLSMGMLRHSPTDVPLTQADAVNLPYKDSSFDIAFSAFGAFPFIENLGPVLKDIARCLKPHGKLVFSTNHPMRWIFPDDPTEIGLCAELSYFDRSYTERDKNGKITYAEFHRTMGDWIELLNASGFIIDRLIEPEWPTNLTETWGQWSPLRGRIFPGTAIFVTHCRLEHHHHHH” reads “failed”; that for “MHNKKWDLRIICAHAFTILIWGTAFPAIRMGLESYTPEHLTLLRLLIASFILLLFSFIYKLRLPDLKDIPAIFIFGALGFTIYHIALNYGEKTVNAGSASLIISVTPIVTAILASVFLNEKMKLNGWLGGVISFAGIALISFSQGDAIQLNSGGLFILLAAISESLFFVFQTSYLKKYGFLPFTIYTILSSTVCMLIFLPGVYQEILAAPLEVNLSVIYLGVFPTVLPYIALAYIISRAGASEATSSLYLTPITACFIAWIWLGEVPTLVSIIGGGITILGIVIAHIPVLRKEKHRNLANNQSV”, “failed”.
On to “MHNLANLYRTGWPGGVEKDTQKALDLYQKMIDLDVPQGFYDMGAMIGNRAGVKNPATDGLTFLDKAASLGNPPALTELGKFYIYVAKKKDLGLAYTHCAASQGYAPASYELGAYYKIVEHNFPKALVYYQVSVSQGGKSAAFFLSRVFGSETPPASAMWYAPDEKLREAYYSIYKKLEADPLEHHHHHH”, for which the protein production entry is on record as “failed”.
“MHPNIATLLSANLGESRTRHLLSLVSVPDGLPSDAEGRATRAEIAQALNMVLFAGILDRVPTGRAYTDDVAATGGKVVFDHGALRTVKWRDNGALPEGEAAFTRILRPLGYRLNGNYPLDRISMTGRSYAHADAPEGIAQFFVSEFHPERFSDAFREAVGRVTGNSADPLTPRAQTLLWQLDRDGVLTVADGAELIGLLVPCFERQHGVPRLADYETLLRESAEMAWIATEGNAFNHATDRVDDVFGLSEQQKALGRPMKDKVEVSGSGRVKQTAFRADTVRRQFIGAQGETVERDVPGSFYEFITRDRFADAPAASPRVDLGFDAGNAQGIFKMTAAV”: the protein production entry is “not failed”.
Turning to “MHPTIARMQEVVAKGDESLIHALLAEDVRFMPPTYYKTWTGRDPVAAVLGHVGQVFSEFRYRRIMGEGKDWALEFQCKVGELDAVGVDLITLNEGGLIQDFEVVMRPYKTVGALRDAMNARVMTDARFLKYREALS”, the protein production entry was “not failed”.
Take “MHQQGIRMEGMSDLNALNLEPGEVVGGYTLISRLGSGAMGSVWRVRDDGGTTYAMKILRDSLADESVAGSGSASAALHDPDLKPDVTPRERLRREAMALKKVNHPGVCGIVDMELDDTLAFIVTELIEGKNLKDDVAANGRYVGDDLERLARKLIDATKAVHAAGIVHRDIKPTNVMVSAAGPVLVDFGIAMGEGESHVTRTGLVMGTPGFIAPEIIDGAESDEATDWWSVASVLAFAATGAPVFGTKPMMAVLEREASGNANLSGLPAGTLAAFRSALDPDRTKRCTPDQLLNAIALDALNPAVWQGAQAGPFAAGAIAGGANTIAPAAGTAGETEAVPPFGAAGHVDRNNPRTIWRATDEAAQALTDEATTTLPDSAAPAISDEATVQLAGATVPLTEATTPLTSEATTPLTPVTGEPLLAPTTPLAERTAVLPSPQPTAFPPTPPVQLVGGMAQNGWNPAAADVQATVVDPNIRPALQRVIDQTAQFAPTEALVQQPLAPNPADVKRGEYLQRGVFPLLLLALPLAVLAASMPLIALLAAAAMLWLLLTLAYNTEPQLEREGRRGGERKSSDTWIRAATLPWHIVKALLLSLPRMVLLIVIAIAGTAAATMALALPTQTVYWYFTPERGVPIPLLNDVPLSASGLALGGFMAIGWLVTVFGPQAMMARLGAGVLRGLNPRQAQSPMPLAYDGSPAVPSPAAMAPASATRGKRSTMLFTIWIIVTLALCTLPLTGMAIDWTPLV”: the protein production result was “failed”.
On to “MHRFFATRTSRIISVVLSLTFLAGCSLSEIDRIERQTKDSGEIARRISDTNRAKAQPAVRWMDKPWVSLKPLAPVVANPEEKILPPCQITINRPDGMNLPELGQRITGLCGPRVTITPDAFLVLSPANVRSGTSQQMPGSLPAPDGHGRVSLPYLGAQSPSASVMKQSDKHISTLKWQGDLPGLLDTIGSRLGLSWRVNKGNIVFYQLDTRMFQLVILNTKISSSASVTSGSSSSIGSSGGTNSGVSGESSSAQKTSVDLNSDLYGDIKKTIENMLTPSKGRFWLSSASGTLTVTDTPETLERIGRYIDYQNELLNRQVQLNVQVLSVTQSRKEQFGLDWKLVYQSLNNIGASVTGNLINAADNAFSGGLSILDTATGPAAKFSGSELLIKALSQQGNVSLVTELNRATINLTPVPFQISDQTGYIQSSSTTATANAGTTSSMQTGIITTGLFMSMLPYIQENGDVQLQFAFTLSDKPTIQPFFSRDGNTRTDTPAFKLRSLTQTVNMRAGQTLVLTGADQLDSVANKQGAFTPGNFLFGGGHVGSDTRTTLVILITPVLLR”, for which the protein production result is “failed”.
As for “MHSAALLQKVDELPRLPKAIAELLDVVNNEDSTVKAVSEKLSHDPVLSARVLRLANSARFGCSREVGTIDDAVVRLGMQTLRTLVIASAVVGAVPKVEGFDLADFWGNTFEVAIICQELAKRLGTLPEEAFTCGILHSIGELLIVNGDPAVAATISAAVADGADRNLMEKELLGYDNAEIGALLAQSWKFTPHLVKGIQFQNHPKSAEPYSKLAGMLAMAKQIAADWDKIPDDERTSWLAQINILAGIKVDLGGLAEKLAKMHGQGMEMGKQLA”, the protein production result is recorded as “not failed”.
